According to patent US20180104312A1 (Eli Lilly, published 2018):

Tests used:
[1] = biological target: T1, human glucose-dependent insulinotropic polypeptide receptor (human) (UniProt P48546); test: cell-based or functional assay
T1 sequence (looked up): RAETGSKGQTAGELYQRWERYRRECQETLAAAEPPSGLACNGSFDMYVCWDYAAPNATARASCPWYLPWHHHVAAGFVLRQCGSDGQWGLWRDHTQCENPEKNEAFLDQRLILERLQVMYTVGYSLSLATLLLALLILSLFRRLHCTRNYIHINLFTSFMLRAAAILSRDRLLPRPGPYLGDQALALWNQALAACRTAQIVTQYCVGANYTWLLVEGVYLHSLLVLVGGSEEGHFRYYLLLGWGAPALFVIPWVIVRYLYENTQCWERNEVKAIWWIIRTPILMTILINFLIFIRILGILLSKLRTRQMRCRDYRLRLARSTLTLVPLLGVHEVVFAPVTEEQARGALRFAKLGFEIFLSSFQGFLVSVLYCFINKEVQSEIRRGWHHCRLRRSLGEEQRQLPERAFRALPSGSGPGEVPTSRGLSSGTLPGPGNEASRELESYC

[2] = biological target: T2, human Glucagon-Like Peptide-1 receptor (human, UniProt P43220 24-463); test: cell-based or functional assay
Target sequence in this assay (P43220 24-463): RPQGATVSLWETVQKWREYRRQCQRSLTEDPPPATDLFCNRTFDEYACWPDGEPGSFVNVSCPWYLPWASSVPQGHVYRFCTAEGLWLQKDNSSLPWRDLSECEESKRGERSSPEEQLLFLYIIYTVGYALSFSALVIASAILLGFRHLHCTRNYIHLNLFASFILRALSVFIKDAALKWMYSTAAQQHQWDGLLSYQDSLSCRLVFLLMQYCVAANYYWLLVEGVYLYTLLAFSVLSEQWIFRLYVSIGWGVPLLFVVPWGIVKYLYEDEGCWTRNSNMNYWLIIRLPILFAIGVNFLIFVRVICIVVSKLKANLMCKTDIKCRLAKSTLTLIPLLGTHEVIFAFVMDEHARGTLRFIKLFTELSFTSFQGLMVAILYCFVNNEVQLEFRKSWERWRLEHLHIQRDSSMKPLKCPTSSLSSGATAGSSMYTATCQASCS

[3] = biological target: T3, recombinant human glucagon receptor (human, UniProt P47871 26-477); test: cell-based or functional assay
[4] = biological target: T3, recombinant human glucagon receptor; test: I-125-Gcg competition SPA, membranes of 293HEK cells expressing hGcg-R
Procedure: (§1) The specific activity is 2200 Ci/mmol. KD determination is performed by homologous competition or saturation binding analysis.
(§2) The receptor binding assay is carried out using a Scintillation Proximity Assay (SPA) format with wheat germ agglutinin (WGA) beads (Perkin Elmer). The binding buffer contains 25 mM 4-(2-hydroxyethyl)-1-piperazineethanesulfonic acid (HEPES), pH 7.4, 2.5 mM CaCl₂, 1 mM MgCl₂, 0.1% (w/v) bacitracin (Affymetrix), 0.003% (w/v) Polyoxyethylenesorbitan monolaurate (TWEEN®-20) and Roche Complete™ Protease Inhibitors without EDTA.

mouse glucagon receptor = biological target: T4, mouse glucagon receptor (mouse, UniProt Q61606 27-485); test: I-125-Gcg competition SPA, membranes of 293HEK cells expressing mGcg-R
T4 construct: whole, on cells; Used as membranes of a clonal 293HEK line; also called mGcg-R; mGcgR
Procedure: as §1, §2

rat glucagon receptor = biological target: T5, rat glucagon receptor (rat, UniProt P30082 27-485); test: I-125-Gcg competition SPA, membranes of 293HEK cells expressing rGcg-R
T5 construct: whole, on cells; Used as membranes of transiently transfected 293HEK cells; also called rGcg-R; rat Gcg-R
Procedure: as §1, §2

[5] = biological target: T6, human glucose-dependent insulinotropic polypeptide receptor (human, UniProt P48546 22-466); test: cell-based or functional assay
T6 sequence (looked up): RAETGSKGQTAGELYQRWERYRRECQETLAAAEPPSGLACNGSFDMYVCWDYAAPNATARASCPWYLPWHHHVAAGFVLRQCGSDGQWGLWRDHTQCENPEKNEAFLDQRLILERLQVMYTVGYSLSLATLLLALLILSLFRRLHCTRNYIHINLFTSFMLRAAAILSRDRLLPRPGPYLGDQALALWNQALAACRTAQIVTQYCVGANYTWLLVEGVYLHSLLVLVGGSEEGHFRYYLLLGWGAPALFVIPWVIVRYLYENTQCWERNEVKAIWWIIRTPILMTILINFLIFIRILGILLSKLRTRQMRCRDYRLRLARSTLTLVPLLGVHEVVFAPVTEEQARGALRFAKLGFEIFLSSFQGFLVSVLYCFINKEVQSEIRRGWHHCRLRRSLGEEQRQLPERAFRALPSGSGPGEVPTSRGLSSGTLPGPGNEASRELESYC

[6] = biological target: T2, human Glucagon-Like Peptide-1 receptor; test: cell-based or functional assay; remark: listed apart in the source
[7] = biological target: T3, recombinant human glucagon receptor; test: cell-based or functional assay; remark: listed apart in the source

T3 sequence (P47871 26-477): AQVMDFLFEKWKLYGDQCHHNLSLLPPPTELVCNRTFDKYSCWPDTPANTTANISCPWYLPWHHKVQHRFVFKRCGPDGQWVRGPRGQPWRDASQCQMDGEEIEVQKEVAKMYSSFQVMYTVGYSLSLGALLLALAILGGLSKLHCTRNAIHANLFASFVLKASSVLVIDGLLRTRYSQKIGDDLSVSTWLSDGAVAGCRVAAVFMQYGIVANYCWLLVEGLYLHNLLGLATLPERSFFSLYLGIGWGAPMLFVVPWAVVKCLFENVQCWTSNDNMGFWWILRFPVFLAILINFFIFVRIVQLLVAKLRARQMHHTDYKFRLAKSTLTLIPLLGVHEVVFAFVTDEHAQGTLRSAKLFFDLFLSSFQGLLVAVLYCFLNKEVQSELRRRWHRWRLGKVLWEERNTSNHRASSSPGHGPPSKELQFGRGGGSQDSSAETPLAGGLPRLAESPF
dulaglutide (Fc fusion), sequence (chain): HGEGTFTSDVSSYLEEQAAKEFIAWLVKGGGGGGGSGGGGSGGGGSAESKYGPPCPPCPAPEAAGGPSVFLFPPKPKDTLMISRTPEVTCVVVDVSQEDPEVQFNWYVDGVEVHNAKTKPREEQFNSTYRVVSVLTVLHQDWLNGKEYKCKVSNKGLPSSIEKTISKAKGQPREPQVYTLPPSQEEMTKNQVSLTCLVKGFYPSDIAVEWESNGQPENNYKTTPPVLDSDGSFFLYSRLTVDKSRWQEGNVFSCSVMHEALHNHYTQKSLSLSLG
T4 sequence (Q61606 27-485): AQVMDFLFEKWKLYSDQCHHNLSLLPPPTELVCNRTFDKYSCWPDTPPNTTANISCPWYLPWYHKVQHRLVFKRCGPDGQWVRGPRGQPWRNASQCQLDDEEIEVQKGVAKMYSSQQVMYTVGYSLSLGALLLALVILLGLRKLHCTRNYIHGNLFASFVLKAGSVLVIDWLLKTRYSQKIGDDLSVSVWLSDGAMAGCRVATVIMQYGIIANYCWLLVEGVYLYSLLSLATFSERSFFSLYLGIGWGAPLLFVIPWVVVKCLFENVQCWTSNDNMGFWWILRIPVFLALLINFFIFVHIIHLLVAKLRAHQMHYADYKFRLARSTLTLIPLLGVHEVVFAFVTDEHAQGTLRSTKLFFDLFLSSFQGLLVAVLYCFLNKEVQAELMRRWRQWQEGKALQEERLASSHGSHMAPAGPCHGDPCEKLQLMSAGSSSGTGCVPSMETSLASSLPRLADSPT
T5 sequence (P30082 27-485): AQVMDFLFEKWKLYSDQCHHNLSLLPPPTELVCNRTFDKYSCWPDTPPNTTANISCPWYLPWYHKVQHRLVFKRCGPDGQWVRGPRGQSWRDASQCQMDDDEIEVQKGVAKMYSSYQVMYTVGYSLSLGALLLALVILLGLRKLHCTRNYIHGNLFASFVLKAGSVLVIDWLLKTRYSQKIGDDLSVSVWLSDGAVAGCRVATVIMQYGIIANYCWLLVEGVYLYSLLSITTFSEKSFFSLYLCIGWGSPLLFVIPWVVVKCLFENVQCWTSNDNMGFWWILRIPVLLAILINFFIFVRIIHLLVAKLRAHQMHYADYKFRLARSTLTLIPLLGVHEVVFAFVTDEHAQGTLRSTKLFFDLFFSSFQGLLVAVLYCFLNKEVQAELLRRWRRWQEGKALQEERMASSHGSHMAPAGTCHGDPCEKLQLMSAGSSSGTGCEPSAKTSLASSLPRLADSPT

| Molecule | EC50, cAMP, GIP Receptor Assay; sample C6.5-4 C.-4 wk [1] [pM] | EC50, cAMP, GIP Receptor Assay; sample C6.5-40 C.-4 wk [1] [pM] | EC50, cAMP, GIP Receptor Assay; sample C6.5MT-4 C.-4 wk [1] [pM] | EC50, cAMP, GIP Receptor Assay; sample C6.5MT-40 C.-4 wk [1] [pM] | EC50, cAMP, GLP-1 Receptor Assay; sample C6.5-4 C.-4 wk [2] [pM] | EC50, cAMP, GLP-1 Receptor Assay; sample C6.5-40 C.-4 wk [2] [pM] | EC50, cAMP, GLP-1 Receptor Assay; sample C6.5MT-4 C.-4 wk [2] [pM] | EC50, cAMP, GLP-1 Receptor Assay; sample C6.5MT-40 C.-4 wk [2] [pM] | EC50, cAMP, Gcg Receptor Assay; sample C6.5-4 C.-4 wk [3] [pM] | EC50, cAMP, Gcg Receptor Assay; sample C6.5-40 C.-4 wk [3] [pM] | EC50, cAMP, Gcg Receptor Assay; sample C6.5MT-4 C.-4 wk [3] [pM] | EC50, cAMP, Gcg Receptor Assay; sample C6.5MT-40 C.-4 wk [3] [pM] | Ki [4] [pM] | Ki (mouse glucagon receptor) [pM] | Ki (rat glucagon receptor) [pM] | EC50, intracellular cAMP (HTRF) [5] [pM] | EC50, intracellular cAMP (HTRF) [6] [pM] | EC50, intracellular cAMP (HTRF) [7] [pM] |
| --- | --- | --- | --- | --- | --- | --- | --- | --- | --- | --- | --- | --- | --- | --- | --- | --- | --- | --- |
| dulaglutide (Fc fusion) | > 100000 | > 100000 | > 100000 | > 100000 | 370 | 310 | 400 | 290 | 51900 | > 100000 | 54000 | > 100000 | – | – | – | – | – | – |
| YXQGTFTSDYSKYLDXKKAXEFVAWLLEE (Aib at positions 2 and 16; K20 epsilon-amino group conjugated with ([2-(2-Amino-ethoxy)-ethoxy]-acetyl)2-(γGlu)1-CO-(CH2)18-CO2H; C-terminal acid) [Example 7] | – | – | – | – | – | – | – | – | – | – | – | – | 673 | 753 | 1380 | > 500000 | > 100000 | 16.6 |
| YXQGTFTSDYSKYLDXKKAXEFVAWLLEE (Aib at positions 2 and 16; K20 epsilon-amino group conjugated with ([2-(2-Amino-ethoxy)-ethoxy]-acetyl)2-(γGlu)1-CO-(CH2)16-CO2H; C-terminal acid) [Example 6] | – | – | – | – | – | – | – | – | – | – | – | – | 316 | 123 | 980 | > 500000 | > 100000 | 4.13 |
